{"source": "the DeepSol protein solubility set", "data": [{"assay": "soluble on expression in E. coli; label from the status in PepcDB or PDB records", "values": [{"sequence": "MSLEQKQMEEKIMNLLTSAPDKTFALEDLEIEIALNNADNFKLMVKALVKLEDSGTIVRSRKNRYALPEKMDLVKGTFRAHERGFGFVLPEEKEMDDIFIPPNEVKDAMNGDLVFATITKRKGDNLAEGTIKKIVERKTTQIVGTYMEDLAGTPIVMPDDKRLFGEVEIDLEDGLKPVDGHKVIVELTEYATGHARARGVVKSIIGHRNDPGVDILSIIHKHGISIGFPEEVMEQVSKAPDLVDDSDIGNRRDLRDQMIITIDGADAKDLDDAVTVKQLPNGNWKLGVHIADVTHYVTEGSPLDIEAQERGTSVYLVDRVIPMLPHKLSNGICSLNPQVDRFTMSCEMEIDQEGHVVNHEIFESIIKTTERMTYTDVNDILVEKDEALREKYAPIVPMLEAMQNLAEILRRKREKRGAIDFDFKEARVVVDEDGHPEAVVMRERSAGEHLIEEFMLAANETVAEHFHWMDVPFIYRIHEDPKEDKLARFFEFITNFGLIVKGTANDIHPAALQQVLEEVKGKPEEMVVSTVMLRSMQQAKYDTVSAGHFGLSTDFYTHFTSPIRRYPDLIVHRLIREYLINGDVRPETLEKRAEELPEIAEHSSKMERRAVEAERETDELKKTEFMVDKVGERFIGIISSVTNFGLFIELPTTIEGLVHVSAMKGDYFKFHQNQLAMIGERTGQIYRIGDEVEVEVTKVDVDAREIDFALRSEGKPGPVSDKQKRQREKPIDKTRNFKSSSKNNRNKRRTGKSEDVKPKTERKDDEWYTKPKKKKKKKPFYQGVAKESPKKKKRREGHHHHHH", "soluble on expression in E. coli": "soluble"}, {"sequence": "MKMKKKKRKMFDVFEHVLNQIVGNGVLLLRRIVIDRSKQHKHFHLIMTYKCIFVVAQHTLVDRLESDNNGEQKFQKLCFI", "soluble on expression in E. coli": "not soluble"}, {"sequence": "MAHHHHHHMPINPEYIPLPKSKEMFAIASWRDSPGLNATPAAHPGVSGSPHLASLDALRNGKGMAGMHAAATTTTTTTNTVTAAGGSLLPPAVQPAEDSKDAAKSKAPLTVAAGKKKKRKPASGATTSTASVAGSGVRSDDVDDFFVHILLPSCVSMQTLEFELQAQTTPLKSIEVGLPKVLFPRKPVGGAGGDASPPTTTALAPAVASAKIVSSPSCAPAVNPTNNELSLPLMRLPPADLPEPAPSESSCAAPPSASAAAAAHVNGDGTASAAAASGEHHGGEYQVSLLFAEKAEAEKTVTFVQRRWPTAAVSLASRSRSVLNATLVLKGMPNQAKTETVLTEMQNLPHTPSYVRLLRSERGVFKGVVFVKYANCEIAEECKLRLEKFVLGSRPLKVEFKKKSTAAASVSAAVIESKRSLQELVRELRVSAEHEGFHLSRSDVAKEALKVLKQLCQSYGLLFDMNDQQVTVRRVLGSNGIGSEKPSPALRPQSMAPAWAPATPAPLRPMDFKGISHWKDIRSQASTLGIMRPLGPEDGKPAFSAGRGRPL", "soluble on expression in E. coli": "not soluble"}, {"sequence": "MQIKDEILSLLKRGKNLLAFSYGSDSSVLFYLLMQEKIDFDLVMINYKTRKNSDLEELKAKELALKFHKKIFIKHAPKFQSNFEKKARDFRYDFFEKICLEQGYDHLILAHHLNDQFEWFLMQLSRGAGLAEILGMQECEKRSNYTLLRPLLFISKDEISSFLKEKDIFYFHDES", "soluble on expression in E. coli": "not soluble"}, {"sequence": "MKSALSLLGERQQSLLTALLHHRKGLTVEELSSLLTISRNAVNQHLTHLGSSGFIQSALQESTGGRPGRVYTLTPNGLELFQRRYSFLAKLLLSWIDKNMGEHELDVCLTELGKEMASGLEHRLTQHTSRSDKLQEAITIMSELGYDTEIYRISENQAEIVANNCVFQELAQQHQEFCKLDISFLKHLLKADIEHTECIVRNGKYCRFRITSPDESGS", "soluble on expression in E. coli": "not soluble"}, {"sequence": "MSTASGITMASMSTYAILGCGSVGHAVAEELVEEGKDVLILDADEGRVEALRDQDLNAQQADICETDVAQTVADRDVVLIMSPDVNANAEAVRNIRESGGEQFIVARADDPVSADDLTELGADVVINPSAVIADSALRALETGELEYKASQLGDVIDGTEERMAILIHRSPDPDSIASAAALRAIAASRDVDADIIYEGEIGHQENRAFVNLLGIELTSNEDVNLDEYDTFALVDVAKGGEPAVESVDIVIDHYEHEHELEHDAAFSDIRPNISATSTILTKYIQELDLNLDQSVATALLYGIRAETLDFKRDTTPADLTAAAYLYPFADHDTLEQVESPSMSPETLDVLAEAIRNREVQGSHLVSNAGFIRDRDALAQAAQHLLNLEGITTTAVFAIADDTIYLAARSKDIRMNIGKVLSDAFGGMGETAGHSTDASVEIPLGIFTGLDTSDDNRDTLLELTEEAVKRKLFEAMGVDSSSSESSNGN", "soluble on expression in E. coli": "not soluble"}, {"sequence": "MSLGGANGKSGLRIWRNARLATMADGVAGLGIVEKGAIATRDGLIIYAGAEASMPALAGPGAETVDCEGRWITPGLIDCHTHLVYAGNRANEFEMRLAGATYEEVARAGGGIVSSVKSLRAANEDELVAQTLPRLDALMAEGVTTVEVKSGYGLDLDNEKKSLRAARRLANERPVTIRTTCLAAHALPPEAKGDKEAFVDLVAGTILPGVAAEKLADAVDGFCEGIAFSPEQIARVFDKARALGLPVKLHADQLSNLHGAALAASYGALSADHLEYTDEAGAAAMAKAGTVATILPGAYYFIRETKKPPVDLFRRHGVKMAVATDSNPGTSPLTSLLLTMNMAATLFGLTVDECLAGVTREAARALGLLDKTGTLEAGKSADLAIWDIERPAELVYRMGFNPLHARIWRGQGSLSAPNTQPAFTIRTAKGIITITTDPNSSSVDKLAAALEHHHHHH", "soluble on expression in E. coli": "soluble"}, {"sequence": "MLIRQVTMEDLEDIIRIENDNFSAEEAATSQALKERIEVIADTFLVAEQDGQIAGYVEGPVINSRYLTDDLFHKVKPNQEKSGYIAVTSLSVDKAFQKQGVGTTLLAALKDLTVAQNRLGIHLTCHDYLISYYEMNGFSNEGLSESTHGGTVWYNMIWENPKI", "soluble on expression in E. coli": "not soluble"}, {"sequence": "MVKNVAVIVDSSFYIPKEEQQKYNIYVIPTPIIFNGRIKYDSDWSSAAKFFKDMNSAKKMPSTSMASPADVLKAFEQVRADGYRQAILMTMASGISGFYNMAVNLANDYQELDVQVWDSKFTLMISGVQALLAAELSAQGITREEIMKKVALLRDSTRVFIVVDDISHLKRTGRLAGGAALVAGLLNIKPILVFNKASKIVAIGKERQMKRAWNWLLKQYAIDAPDFDRPIRVLFADANNRALTENWQADFHEKYPDVITDFIPIGPLIGVHTGEKAVGFVYMDDWKDIARHH", "soluble on expression in E. coli": "not soluble"}, {"sequence": "MHEWGLSEELKIQTKQMIEIAEKELSIMRNAIDKEDECILCKMEDIHHMLANVQTLAATYYIQAYLSPYTESSSFITTAIQHLSARKHGALIVVERNETLEALIQTGTTLNAHLTAPLLESIFYPGNPLHDGAVLVKNNHIVSAANILPLTKSTEVDPELGTRHRAAIGLSEKSDALILVVSEETGRTSFALNGILYTISL", "soluble on expression in E. coli": "soluble"}, {"sequence": "MLNVVKRDGRQVVFDSNKIFNAIKGAADEIGYDIKQSDILELTQKVIGRVEDLKIREISVEEVQNLVEEVLLENGNKEIGMAYCTYRKERTKVRE", "soluble on expression in E. coli": "not soluble"}, {"sequence": "MDQKKDPSNNLTERRVSKVQRPNKKKVRNQVESLSRNLERNKEGQLLQTVSKGHLEADSGHSLGREKENGELGIRSIFYDKDWNPRGTAPSHYRNIPYNPATFKRRTEVQARLGNLENIKIPK", "soluble on expression in E. coli": "not soluble"}, {"sequence": "MLIPAQENNVSLTATPSRIGQIMKYGFPGLDHVRSHSDYVLSYDRRNRVPHWVFEHLTAESVAKNDAVDRSKCDFKQDESIHPFFRSQNTDYRRSGYDRGHMAAAGNHRLHQKHCDETFYLSNMAPQVGQGFNRDAWNTLEAHVRRLTKTYSNVYVCTGPLYLPHKEDDGKSYVKYEVIGANTVAVPTHFYKVIVGESADHKLHMESYVMPNQVISNDTPISVFQVPPESVERSAGLLFFDQINRKQLTTINGKKVAAALEHHHHHH", "soluble on expression in E. coli": "soluble"}, {"sequence": "MSLTVRQLASLTRGAVRTLATDGAVAVLPIGAVEQHGDHLPLGTDFLLVEAVCDRAMQQLEDDRTTWVRVPTMTFGHSPHHLFAAAVSLQAGTLTDVLADVLDSLAQTGFRRIVIVNGHGGNDELVRLAVKAHSLHAEGTAAACSYWTLTAQTTAEAAATERPDRTPGHAGWFETSLMLAVHPELVADDRPFTPSDPPPLFNRSPAPGLTVERHGEWPRVGGTTDDAREASAETGRLLLGRRVAGLVAALQSLDRATATPPAASVPSTDRERGPQAEGHHHHHH", "soluble on expression in E. coli": "not soluble"}, {"sequence": "MGSDKIHHHHHHMYDAVIIGGGPGGYVCAIKLAQLGKKVALVEKDALGGTCTNRGCIPTKAMLTVSHLMDEMKEKASKYGLKVSGVEYDVAAIMKHVQKSVMMSRKGIEYLLKKNGVEVFKGTAVVENKNTVVVQETGEKLEAKNLVLAHGSVPSVFSPFDIDGVWTSDDVFNLKEFPKSLVIVGGGVIGVEFATFFGSFGVDVTIVEIAEHILPYEDSDVAEEVKKALKRKGVKILEKTKISSLSKVDDGFEVALENGETLKAEKVLLAAGRKPNIPEDVKALGVKIEKGVVTDSRMRTNVENVYAIGDIRSGIMLAHVAMYEGIVAAKNIAGEEEEMDYSAVPSIIFSSPEVASVGVREKDVNPEEVVISKFPVSANGRARTMLENIGFAKVIADKKDGTVLGMSIVSPSATDMIMEGVIAVKFRMKAEDLEKAIHPHPTLTETILGALEGVSGKPIHL", "soluble on expression in E. coli": "not soluble"}, {"sequence": "DLRRQLRKAVMDHVSDSFLETNVPLLVLIEAAKNGNEKEVKEYAQVFREHANKLIEVANLACSISNNEEGVKLVRMSASQLEALCPQVINAALALAAKPQSKLAQENMDLFKEQWEKQVRVLTDAVDDITSIDDFLAVSENHILEDVNKCVIALQEKDVDGLDRTAGAIRGRAARVIHVVTSEMDNYEPGVYTEKVLEATKLLSNTVMPRFTEQVEAAVEALSSDPAQPMDENEFIDASRLVYDGIRDIRKAVLMI", "soluble on expression in E. coli": "soluble"}, {"sequence": "VPITPLLHESVARFAATGADITTRAEPDLFVSIDPDHLRRILTAVLDNAITHGDGEIAVTAHARDGAVDIGVRDHGPGFADHFLPVAFDRFTRADTARGGRGSGLGLAIVAALTTTHGGHANATNHPDGGAELRITLPTPRPPFHEELPRITSSDTKDPNREHDTSDQ", "soluble on expression in E. coli": "not soluble"}, {"sequence": "MGSDKIHHHHHHMEYEQLLQSELGELEIIREELQNKEYRGMIVKTAKDGTTIRTRLAKKTDKKTGYFVAFWEKDELGKNCPFDENDSADFLCIVVIDGDLNGLFVFPRQCLIEKGILTSEVGIGKMAARFYPSWCQDLNKTAEKTQAWQQVYFKNYSIRKEDH", "soluble on expression in E. coli": "not soluble"}, {"sequence": "GSIPGLERALQQYTLEPSEKPFDLKSVPLATAPLAEQRTESTPVTAAKQPEKVAATRQEIFQEQLAAVPEFQGLGPLFKSSPEPVALTESETEYVIRCTKHTFTDHMVFQFDCTNTLNDQTLENVTVQMEPSEAYEVLCYVPARSLPYNQPGTCYTLVALPKEDPTAVACTFSCVMKFTVKDCDPTTGEADDEGYEDEYVLEDLEVTIADHIQKVMKLNFEAAWDEVGDEFQKEETFTLSTIKTLEEAVGNIVKFLGMHPCERSDKVPDNKNTHTLLLAGVFRGGHDILVRSRLLLLDTVTMQVTARSSEELPVDIVLASVG", "soluble on expression in E. coli": "soluble"}, {"sequence": "MKRVISKILKKEKEKEEEVEEKTIGLIIDGPNILRKEFGIKLEDIKKALEKIGKIRVAKVVLNQYAPQGLIEAVVNQGFEPIIVAGDTDVRVAIEAMELIYNTDVDVIALATRDADFLPLISEAKRKGKETVVIGVEPGFSVALQNAADYIIKMEKKKEAEGY", "soluble on expression in E. coli": "soluble"}]}]}
